Measured values from PMC4576200 (Viruses, 2015).

Molecular target: the molecule itself
Assay: AUC

B1: gp5β-BC, solvent-exposed part of the β-helical domain of bacteriophage T4 gene product 5 (residues 483–575) (domain or fragment, UniProt P16009 483-575, looked up)
chain: RGDETKTVEGNGTILVKGNVTIIVEGNADITVKGDATTLVEGNQTNTVNGNLSWKVAGTVDWDVGGDWTEKMASMSSISSGQYTIDGSRIDIG
- stoichiometry N: 3
